Measurements reported in patent publication US20130171130A1 (ZymoGenetics, published 2013).

Tests used:
[1] = molecular target: T1, IL-20RA/IL-20RB heterodimeric receptor (human, UniProt Q9UHF4 30-553; Q6UXL0 30-311); test: 125I-labeled IL-20 binding on BHK cells expressing IL-20RA and IL-20RB
T1 construct: Both subunits co-expressed on transfected COS, BHK or BaF3 cells, or endogenous on HaCaT keratinocytes; also called IL-20RB/IL-20RA heterodimer; IL-20 receptor
T1 sequence 1: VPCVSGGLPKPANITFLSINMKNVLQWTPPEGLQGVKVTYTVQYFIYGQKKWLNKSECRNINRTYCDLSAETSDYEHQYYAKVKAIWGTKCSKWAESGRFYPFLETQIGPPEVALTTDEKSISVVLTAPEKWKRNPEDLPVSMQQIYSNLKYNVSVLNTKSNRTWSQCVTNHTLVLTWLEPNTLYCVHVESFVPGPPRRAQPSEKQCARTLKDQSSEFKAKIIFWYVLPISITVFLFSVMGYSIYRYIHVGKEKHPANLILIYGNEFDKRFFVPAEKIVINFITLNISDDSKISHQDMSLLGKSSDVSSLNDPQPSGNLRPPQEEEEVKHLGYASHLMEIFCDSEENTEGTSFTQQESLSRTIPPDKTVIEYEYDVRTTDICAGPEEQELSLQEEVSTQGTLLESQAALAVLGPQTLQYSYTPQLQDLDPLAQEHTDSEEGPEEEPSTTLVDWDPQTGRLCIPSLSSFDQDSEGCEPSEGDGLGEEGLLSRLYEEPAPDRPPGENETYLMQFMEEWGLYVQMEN
T1 sequence 2: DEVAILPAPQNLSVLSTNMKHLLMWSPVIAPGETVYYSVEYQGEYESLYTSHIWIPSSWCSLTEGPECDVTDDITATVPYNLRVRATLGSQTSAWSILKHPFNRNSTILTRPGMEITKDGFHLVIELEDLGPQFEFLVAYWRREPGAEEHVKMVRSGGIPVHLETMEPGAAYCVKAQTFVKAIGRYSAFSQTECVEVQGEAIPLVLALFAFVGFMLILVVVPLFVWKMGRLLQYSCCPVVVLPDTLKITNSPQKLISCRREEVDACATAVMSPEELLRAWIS
Protocol: (§1) The specificity and affinity of IL-20 for its receptor was determined using BHK cells stably transfected with IL-20RA, IL-20RB or both receptor subunits. […] Binding of ¹²⁵I-labeled IL-20 was eliminated in the presence of 100-fold excess of unlabeled IL-20 but not with 100-fold excess of the unrelated cytokine, IL-21.

[2] = molecular target: T2, IL-20RA (expressed alone on BHK cells) (human, UniProt Q9UHF4 30-553); test: radiolabeled ligand binding on stably transfected BHK cells
T2 construct: BHK cells stably transfected with IL-20RA only; also called ZcytoR7; IL-20 receptor alpha chain
T2 sequence: T1 sequence 1
Protocol: as §1

[3] = molecular target: T3, IL-20RB (expressed alone on BHK cells) (human, UniProt Q6UXL0 30-311); test: as above
T3 construct: BHK cells stably transfected with IL-20RB only; also called DIRS1; IL-20 receptor beta chain
T3 sequence: T1 sequence 2
Protocol: as §1

- Kd [1]: ~1.5 nM
- binding result [2]: no binding
- binding result [3]: no binding
B1: IL-20 (Interleukin-20) (ligand, UniProt Q9NYY1 25-176, looked up)
chain: LKTLNLGSCVIATNLQEIRNGFSEIRGSVQAKDGNIDIRILRRTESLQDTKPANRCCLLRHLLRLYLDRVFKNYQTPDHYTLRKISSLANSFLTIKKDLRLCHAHMTCHCGEEAMKKYSQILSHFEKLEPQAAVVKALGELDILLQWMEETE
notes: also called Zcyto10; IL-20 protein
